Results as given in patent publication EP4019546A1.
Like-named read-outs stand apart in the source and are kept apart here.

Experiments:
human IL-31-His (human) [1] = target: human IL-31-His (human) (UniProt Q6EBC2); experiment: SPR (Biacore T200), IL-31-His captured via anti-His antibody, scFv as analyte, 1:1 model
human IL-31 (human) [2] = target: human IL-31 (human) (UniProt Q6EBC2); experiment: cell-based or functional assay
human IL-31-His (human) [3] = target: human IL-31-His (human) (UniProt Q6EBC2); experiment: SPR (Biacore T200), IL-31-His captured via anti-His antibody, scFv as analyte, 1:1 model; remark: listed apart in the source
human IL-31 (human) [4] = target: human IL-31 (human) (UniProt Q6EBC2); experiment: competitive ELISA, IL-31RA coated, biotinylated IL-31 preincubated with scFv; competitor IL-31RA
human IL-31 (human) [5] = target: human IL-31 (human) (UniProt Q6EBC2); experiment: cell-based or functional assay; remark: listed apart in the source

Sequence of human IL-31 (human) (Q6EBC2 24-164 limits assumed): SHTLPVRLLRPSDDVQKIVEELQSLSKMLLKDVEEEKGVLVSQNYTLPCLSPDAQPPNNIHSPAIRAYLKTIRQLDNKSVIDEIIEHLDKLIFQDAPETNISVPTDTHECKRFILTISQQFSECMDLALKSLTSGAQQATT
Sequence of human IL-31-His (human) (Q6EBC2 24-164 limits assumed): as above

Kd (human IL-31-His (human) [1]): 1130 pM
koff (human IL-31-His (human) [1]): 0.000653 s⁻¹
kon (human IL-31-His (human) [1]): 579000 M⁻¹ s⁻¹
IC50, neutralization of hIL-31-induced signaling in IL-31RA/OSMR dimerization assay (human IL-31 (human) [2]): 8.08 ng/mL
rel. IC50 (IC50, BMS-981164/IC50, test sample), IL-31RA/OSMR dimerization assay (human IL-31 (human) [2]): 0.85
Kd (human IL-31-His (human) [3]): 505 pM
koff (human IL-31-His (human) [3]): 0.000447 s⁻¹
kon (human IL-31-His (human) [3]): 884000 M⁻¹ s⁻¹
IC50 (human IL-31 (human) [4]): 4.58 ng/mL
rel. IC50 (IC50, BMS-981164/IC50, test sample) (human IL-31 (human) [4]): 2.04
IC50, neutralization of hIL-31-induced signaling in IL-31RA/OSMR dimerization assay (human IL-31 (human) [5]): 11.1 ng/mL
rel. IC50 (IC50, BMS-981164/IC50, test sample), IL-31RA/OSMR dimerization assay (human IL-31 (human) [5]): 1.16
B1: PRO1643 (scFv, from another filing)
scFv: AFQLTQSPSSLSASVGDRVTITCQASQSIDSWLAWYQQKPGKPPKLLIYQASKLASGVPSRFSGSGSGTDYTLTISSLQPEDFATYYCQTYYGGGHIGWGFGTGTKVTVLGGGGGSGGGGSGGGGSGGGGSQSQLVESGGGLVQPGGSLRLSCAASGFSFSANYWICWVRQAPGKGLEWIVCIYIGSRADTYYAPWAKGRFTISKDNSKNTVYLQMNSLRAEDTAVYFCARFSSGIYDLDRFFLWGQGTLVTVSS
